According to patent publication US20100173352A1:

Molecular target: human CD47/IAP receptor on HUCB-EPC (human) (UniProt Q08722)
Assay: cell-based or functional assay

HUCB-EPC adhesion onto gelatin-vitronectin after pre-treatment with 40 µg/ml, compared with BSA: 14.6%
HUCB-EPC adhesion onto gelatin-vitronectin after pre-treatment with 40 µg/ml, compared with control mouse IgG1: 16.6%
B1: mouse monoclonal anti-human CD47 IgG1 (clone B6H12) (antibody, from another filing, V domains shown)
VH: EVQLVESGGDLVKPGGSLKLSCAASGFTFSGYGMSWVRQTPDKRLEWVATITSGGTYTYYPDSVKGRFTISRDNAKNTLYLQIDSLKSEDTAIYFCARSLAGNAMDYWGQGTSVTVSS
VL: DIVMTQSPATLSVTPGDRVSLSCRASQTISDYLHWYQQKSHESPRLLIKFASQSISGIPSRFSGSGSGSDFTLSINSVEPEDVGVYYCQNGHGFPRTFGGGTKLEIK
